{
  "source": "paper PMC2567969",
  "key": {"[1]": {"biological_target": "EGF receptor (Homo sapiens) (UniProt P00533)", "conditions": "cited from earlier work"}, "[2]": {"biological_target": "Ik2-MBPHis fusion protein (Drosophila)", "assay": "SPR; ProteOn XPR36, GLC chip; Ik2-MBPHis (1400 RU) and Sec13-MBP (5500 RU) amine-coupled; Spn-F injected at six concentrations 0.1625 to 5 μM; PBS pH 7.4, 0.005% Tween 20, 25°C; global fit to 1:1 Langmuir model"}},
  "data": [
    {"molecule": "EGF (from UniProt P01133)", "values": [
      {"measurement": "Kd", "setting": "[1]", "result": 410, "unit": "nM"}
    ]},
    {"molecule": "Spn-F, recombinant, MBP-His6 tag cleaved (natural protein) MEASAAKITPMASSMSASGSTNSPSSEKMNYALQVALQTIKERCIQLQRRVASMEEENQQLREASSRSEGAPRANEIGVTGDVLSLKAQVSELQRQKEQLEEHIGMVSNENRRLWSRLSQISKDQQLNALPSSTDSRAQQNQNLVRSKTFTQHSPNPHLRQKMLSDGIKDLSLEEIALDDFGASSEELGYPYNLQKVEETTSEPDANVDAKRCLDGLQELRREAMKQQQELRSVMTLLENRIALKPCPECAQKTIKKPEMADKSLETDDSLTSELKNYESQHNGHNGTPPSQRINIIQEKIKADAADAMEKTCPMCGKQYSSQVSFNAFREHVEMHFIDDALELESENSIERQFEFVSHAVGDF", "values": [
      {"measurement": "Kd", "setting": "[2]", "result": 407, "unit": "nM"},
      {"measurement": "koff", "setting": "[2]", "result": 0.00169, "unit": "s⁻¹"},
      {"measurement": "kon", "setting": "[2]", "result": 4150, "unit": "M⁻¹ s⁻¹"}
    ]}
  ]
}
